Test results from patent US9468682B2, “Compositions and methods for enhancing penetration of biologically active substances into tissues or organs” (Joint-stock company “High Tech”, priority 2013, dated 2016).

Assays:
[1] = Franz diffusion cell skin permeability for insulin, antibiotics and mesotherapy components; conditions: FIG. 1; donor insulin 5 IU/ml or 0.25 mg/ml; HPLC
Source text: The receptor solution aliquots were collected at different intervals and analyzed using HPLC.

[2] = Delivery through skin and mucous membranes in animals; assay type: in vivo; conditions: with ammonium sulfate; rats and guinea pigs
[3] = In vitro skin permeability, Franz diffusion cell, 3H-labeled substances; conditions: Table 4
Experimental: The vertical Franz diffusion cell was used (PermeGear, Bethlehem, USA) with the effective diffusion surface of 2 cm^2.
The experiments were carried out using the skin of male species of Sprague-Dawley rats, weight 110-120 g, taken from the front abdominal wall. Hair and adipose tissue were removed from the skin; the skin was soaked in normal saline and placed into the diffusion cell. The following solutions labeled with ^3H in accordance with the standard method (Klimova et. al. 1993) were added into the donor chamber: complex of collagenolytic digestive protease from hydrobionts (Fermencol™, Table 3), Fe-superoxide dismutase from E. coli (Table 4) and fragments of rRNA 25-55 bases in length (Table 5).

insulin
Effect of further increase of ammonium sulfate concentration on insulin diffusion from donor to acceptor solution [1]: does not influence the effectiveness of insulin diffusion | Delivery through skin and mucous membranes [2]: Positive results

B1: Fe-superoxide dismutase from E. coli: Fe-superoxide dismutase from E. coli, labeled with 3H (protein, UniProt P0AGD3 2-193, looked up)
Superoxide dismutase [Fe]: SFELPALPYAKDALAPHISAETIEYHYGKHHQTYVTNLNNLIKGTAFEGKSLEEIIRSSEGGVFNNAAQVWNHTFYWNCLAPNAGGEPTGKVAEAIAASFGSFADFKAQFTDAAIKNFGSGWTWLVKNSDGKLAIVSTSNAGTPLTTDATPLLTVDVWEHAYYIDYRNARPGYLEHFWALVNWEFVAKNLAA
modifications: tritium (3H) label
^3H-labeled marker in receptor medium, % from initial ([3]; ammonium sulfate 0 M in donor medium, incubation 10 hrs): 0.01% | ^3H-labeled marker in receptor medium, % from initial ([3]; ammonium sulfate 0 M in donor medium, incubation 20 hrs): 0.05% | ^3H-labeled marker in receptor medium, % from initial ([3]; ammonium sulfate 0 M in donor medium, incubation 30 hrs): 0.07% | ^3H-labeled marker in receptor medium, % from initial ([3]; ammonium sulfate 0 M in donor medium, incubation 40 hrs): 0.11% | ^3H-labeled marker in receptor medium, % from initial ([3]; ammonium sulfate 0 M in donor medium, incubation 60 hrs): 0.34% | ^3H-labeled marker in receptor medium, % from initial ([3]; ammonium sulfate 0.1 M in donor medium, incubation 10 hrs): 5.31% | ^3H-labeled marker in receptor medium, % from initial ([3]; ammonium sulfate 0.1 M in donor medium, incubation 20 hrs): 10.00% | ^3H-labeled marker in receptor medium, % from initial ([3]; ammonium sulfate 0.1 M in donor medium, incubation 30 hrs): 12.06% | ^3H-labeled marker in receptor medium, % from initial ([3]; ammonium sulfate 0.1 M in donor medium, incubation 40 hrs): 17.99% | ^3H-labeled marker in receptor medium, % from initial ([3]; ammonium sulfate 0.1 M in donor medium, incubation 60 hrs): 20.11% | ^3H-labeled marker in receptor medium, % from initial ([3]; ammonium sulfate 0.2 M in donor medium, incubation 10 hrs): 5.67% | ^3H-labeled marker in receptor medium, % from initial ([3]; ammonium sulfate 0.2 M in donor medium, incubation 20 hrs): 12.56% | ^3H-labeled marker in receptor medium, % from initial ([3]; ammonium sulfate 0.2 M in donor medium, incubation 30 hrs): 17.90% | ^3H-labeled marker in receptor medium, % from initial ([3]; ammonium sulfate 0.2 M in donor medium, incubation 40 hrs): 27.60% | ^3H-labeled marker in receptor medium, % from initial ([3]; ammonium sulfate 0.2 M in donor medium, incubation 60 hrs): 35.11% | ^3H-labeled marker in receptor medium, % from initial ([3]; ammonium sulfate 0.5 M in donor medium, incubation 10 hrs): 7.80% | ^3H-labeled marker in receptor medium, % from initial ([3]; ammonium sulfate 0.5 M in donor medium, incubation 20 hrs): 10.81% | ^3H-labeled marker in receptor medium, % from initial ([3]; ammonium sulfate 0.5 M in donor medium, incubation 30 hrs): 16.94% | ^3H-labeled marker in receptor medium, % from initial ([3]; ammonium sulfate 0.5 M in donor medium, incubation 40 hrs): 31.00% | ^3H-labeled marker in receptor medium, % from initial ([3]; ammonium sulfate 0.5 M in donor medium, incubation 60 hrs): 35.30% | ^3H-labeled marker in receptor medium, % from initial ([3]; ammonium sulfate 1.0 M in donor medium, incubation 10 hrs): 7.67% | ^3H-labeled marker in receptor medium, % from initial ([3]; ammonium sulfate 1.0 M in donor medium, incubation 20 hrs): 10.33% | ^3H-labeled marker in receptor medium, % from initial ([3]; ammonium sulfate 1.0 M in donor medium, incubation 30 hrs): 16.74% | ^3H-labeled marker in receptor medium, % from initial ([3]; ammonium sulfate 1.0 M in donor medium, incubation 40 hrs): 31.00% | ^3H-labeled marker in receptor medium, % from initial ([3]; ammonium sulfate 1.0 M in donor medium, incubation 60 hrs): 35.11%
